Data on 55 molecules can be found in patent publication US20200199241A1 (Chugai, published 2020).

In general, Kd refers to the free concentration of one partner at which half of the binding sites on the other are occupied at equilibrium, for simple one-to-one binding. A low value points to higher affinity.

The chains are these.
B1: IgG1-F105 (antibody)
heavy: QVQLQESGPGLVKPSETLSLTCAVSGHSISHDHAWSWVRQPPGEGLEWIGFISYSGITNYNPSLQGRVTISRDNSKNTLYLQMNSLRAEDTAVYYCARSLARTTAMDYWGEGTLVTVSSASTKGPSVFPLAPSSKSTSGGTAALGCLVKDYFPEPVTVSWNSGALTSGVHTFPAVLQSSGLYSLSSVVTVPSSSLGTQTYICNVNHKPSNTKVDKKVEPKSCDKTHTCPPCPAPELLGGPSVFLFPPKPKDTLYISRTPEVTCVVVDVSHEDPEVKFNWYVDGVEVHNAKTKPREEQYNSTYRVVSVLAPLHQDWLNGKEYKCKVSNKALPAPIEKTISKAKGQPREPQVYTLPPSRDELTKNQVSLTCLVKGFYPSDIAVEWESNGQPENNYKTTPPVLDSDGSFFLYSKLTVDKSRWQQGNVFSCSVMHEALHYHYTQKSLSLSP
light: not shown
notes: EU numbering; copies: 2 + 2
B2: IgG1-F130 (antibody)
heavy: B1 heavy with A309T, P310M
light: not shown
notes: EU numbering; label printed 'F130' between F149 and F152 (perhaps F150); copies: 2 + 2
B3: IgG1-F173 (antibody)
heavy: B1 heavy with Y254W, A309T, P310V, E382A
light: not shown
notes: EU numbering; copies: 2 + 2
B4: IgG1-F157 (antibody)
heavy: B1 heavy with Y254M, P259A, A309T, M430L
light: not shown
notes: copies: 2 + 2
B5: IgG1-F120 (antibody)
heavy: B1 heavy with Y254M, P259L, A309T, M430L
light: not shown
notes: EU numbering; copies: 2 + 2
B6: IgG1-F136 (antibody)
heavy: B1 heavy with Y254M, P259T, A309T, P310V, M430L
light: not shown
notes: EU numbering; copies: 2 + 2
B7: IgG1-F165 (antibody)
heavy: B1 heavy with Y254W, D267A, A309T, P310V
light: not shown
notes: EU numbering; copies: 2 + 2
B8: IgG1-F106 (antibody)
heavy: B1 heavy with V305A, A309T
light: not shown
notes: EU numbering; copies: 2 + 2
B9: IgG1-F176 (antibody)
heavy: B1 heavy with S241K, Y254W, A309T, P310V
light: not shown
notes: EU numbering; copies: 2 + 2
B10: IgG1-F125 (antibody)
heavy: B1 heavy with S256T, T258E, A309T, M430L
light: not shown
notes: EU numbering; copies: 2 + 2
B11: IgG1-F170 (antibody)
heavy: B1 heavy with Y254W, A309T, P310V, Q313A
light: not shown
notes: EU numbering; copies: 2 + 2
B12: IgG1-F141 (antibody)
heavy: B1 heavy with S300G, A309T
light: not shown
notes: EU numbering; copies: 2 + 2
B13: IgG1-F158 (antibody)
heavy: B1 heavy with Y254M, P259T, A309T, M430L
light: not shown
notes: EU numbering; copies: 2 + 2
B14: IgG1-F122 (antibody)
heavy: B1 heavy with T258E, A309T, P310V, M430L, Y436W
light: not shown
notes: EU numbering; copies: 2 + 2
B15: IgG1-F171 (antibody)
heavy: B1 heavy with Y254W, A309T, P310V, D314A
light: not shown
notes: EU numbering; copies: 2 + 2
B16: IgG1-F174 (antibody)
heavy: B1 heavy with Y254W, A309T, P310V, E384A
light: not shown
notes: EU numbering; copies: 2 + 2
B17: IgG1-F137 (antibody)
heavy: B1 heavy with Y254M, P259V, A309T, P310V, M430L
light: not shown
notes: EU numbering; copies: 2 + 2
B18: IgG1-F109 (antibody)
heavy: B1 heavy with A309T, Q313A
light: not shown
notes: EU numbering; 'M4252Y' read as M252Y; copies: 2 + 2
B19: IgG1-F112 (antibody)
heavy: B1 heavy with A309T, E382A
light: not shown
notes: EU numbering; copies: 2 + 2
B20: IgG1-F145 (antibody)
heavy: B1 heavy with A309T, P310F
light: not shown
notes: EU numbering; copies: 2 + 2
B21: IgG1-F107 (antibody)
heavy: B1 heavy with A309T, D378A
light: not shown
notes: EU numbering; copies: 2 + 2
B22: IgG1-F167 (antibody)
heavy: B1 heavy with Y254W, V305A, A309T, P310V
light: not shown
notes: EU numbering; copies: 2 + 2
B23: IgG1-F139 (antibody)
heavy: B1 heavy with Y254W, A309T, Y436W
light: not shown
notes: EU numbering; copies: 2 + 2
B24: IgG1-F142 (antibody)
heavy: B1 heavy with D272F, A309T
light: not shown
notes: EU numbering; copies: 2 + 2
B25: IgG1-F163 (antibody)
heavy: B1 heavy with Y254W, A309T, P310V, M430F
light: not shown
notes: EU numbering; copies: 2 + 2
B26: IgG1-F121 (antibody)
heavy: B1 heavy with T258E, A309T, M430L, Y436W
light: not shown
notes: EU numbering; copies: 2 + 2
B27: IgG1-F149 (antibody)
heavy: B1 heavy with A309T, P310L
light: not shown
notes: EU numbering; copies: 2 + 2
B28: IgG1-F114 (antibody)
heavy: B1 heavy with A309T, S426A
light: not shown
notes: EU numbering; copies: 2 + 2
B29: IgG1-F134 (antibody)
heavy: B1 heavy with Y254M, P259N, A309T, P310V, M430L
light: not shown
notes: EU numbering; copies: 2 + 2
B30: IgG1-F162 (antibody)
heavy: B1 heavy with Y254W, A309T, P310V, M430Y
light: not shown
notes: EU numbering; copies: 2 + 2
B31: IgG1-F131 (antibody)
heavy: B1 heavy with Y254M, P259G, A309T, P310V, M430L
light: not shown
notes: EU numbering; copies: 2 + 2
B32: IgG1-F140 (antibody)
heavy: B1 heavy with S241K, A309T
light: not shown
notes: copies: 2 + 2
B33: IgG1-F132 (antibody)
heavy: B1 heavy with Y254M, P259I, A309T, P310V, M430L
light: not shown
notes: EU numbering; copies: 2 + 2
B34: IgG1-F113 (antibody)
heavy: B1 heavy with A309T, E384A
light: not shown
notes: EU numbering; copies: 2 + 2
B35: IgG1-F152 (antibody)
heavy: B1 heavy with A309T, P310Q
light: not shown
notes: EU numbering; copies: 2 + 2
B36: IgG1-F166 (antibody)
heavy: B1 heavy with Y254W, A309Q, P310V
light: not shown
notes: EU numbering; copies: 2 + 2
B37: IgG1-F164 (antibody)
heavy: B1 heavy with P240A, Y254W, A309T, P310V
light: not shown
notes: EU numbering; copies: 2 + 2
B38: IgG1-F111 (antibody)
heavy: B1 heavy with A309T, K319A
light: not shown
notes: EU numbering; copies: 2 + 2
B39: IgG1-F143 (antibody)
heavy: B1 heavy with A309T, P310A
light: not shown
notes: EU numbering; copies: 2 + 2
B40: IgG1-F159 (antibody)
heavy: B1 heavy with Y254M, P259V, A309T, M430L
light: not shown
notes: EU numbering; copies: 2 + 2
B41: IgG1-F123 (antibody)
heavy: B1 heavy with T258E, A309T
light: not shown
notes: EU numbering; copies: 2 + 2
B42: IgG1-F147 (antibody)
heavy: B1 heavy with A309T, P310I
light: not shown
notes: EU numbering; copies: 2 + 2
B43: IgG1-F154 (antibody)
heavy: B1 heavy with A309T, P310T
light: not shown
notes: EU numbering; copies: 2 + 2
B44: IgG1-F168 (antibody)
heavy: B1 heavy with Y254W, A309T, P310V, D378A
light: not shown
notes: EU numbering; copies: 2 + 2
B45: IgG1-F169 (antibody)
heavy: B1 heavy with Y254W, V307A, A309T, P310V
light: not shown
notes: EU numbering; copies: 2 + 2
B46: IgG1-F135 (antibody)
heavy: B1 heavy with Y254M, P259S, A309T, P310V, M430L
light: not shown
notes: EU numbering; copies: 2 + 2
B47: IgG1-F133 (antibody)
heavy: B1 heavy with Y254M, P259M, A309T, P310V, M430L
light: not shown
notes: EU numbering; copies: 2 + 2
B48: IgG1-F160 (antibody)
heavy: B1 heavy with Y254W, A309T, P310V, M430I
light: not shown
notes: EU numbering; copies: 2 + 2
B49: IgG1-F172 (antibody)
heavy: B1 heavy with Y254W, A309T, P310V, K319A
light: not shown
notes: EU numbering; copies: 2 + 2
B50: IgG1-F128 (antibody)
heavy: B1 heavy with Y254M, P259L, A309T, P310V, M430L, Y436W
light: not shown
notes: EU numbering; copies: 2 + 2
B51: IgG1-F129 (antibody)
heavy: B1 heavy with Y254M, P259A, A309T, P310V, M430L
light: not shown
notes: EU numbering; copies: 2 + 2
B52: IgG1-F175 (antibody)
heavy: B1 heavy with Y254W, A309T, P310V, S426A
light: not shown
notes: EU numbering; copies: 2 + 2
B53: IgG1-F108 (antibody)
heavy: B1 heavy with V307A, A309T
light: not shown
notes: EU numbering; copies: 2 + 2
B54: IgG1-F177 (antibody)
heavy: B1 heavy with Y254W, S300G, A309T, P310V
light: not shown
notes: EU numbering; copies: 2 + 2
B55: IgG1-F124 (antibody)
heavy: B1 heavy with T258E, A309T, P310V, M430L
light: not shown
notes: EU numbering; copies: 2 + 2

Positions count from the first letter of the chain named. Names may count otherwise.

The target of this experiment is T1, human FcRn (soluble human FcRn complexed with β2-microglobulin) (human, UniProt P61769 21-119, limits assumed).
T1 construct: also called hFcRn
T1 sequence (chain, as listed by the source limits assumed, chain 1 of 2): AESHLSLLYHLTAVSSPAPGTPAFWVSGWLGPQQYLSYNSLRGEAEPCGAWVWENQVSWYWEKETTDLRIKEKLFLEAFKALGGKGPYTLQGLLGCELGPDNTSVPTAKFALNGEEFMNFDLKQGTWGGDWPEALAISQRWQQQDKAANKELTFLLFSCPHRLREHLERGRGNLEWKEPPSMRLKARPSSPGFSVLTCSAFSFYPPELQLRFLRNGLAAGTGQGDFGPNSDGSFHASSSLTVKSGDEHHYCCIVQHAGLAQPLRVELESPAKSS
T1 sequence (P61769 21-119 limits assumed, chain 2 of 2): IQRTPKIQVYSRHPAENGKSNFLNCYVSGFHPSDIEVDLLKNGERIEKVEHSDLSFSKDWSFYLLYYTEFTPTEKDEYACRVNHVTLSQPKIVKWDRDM
In words: SPR, pH 7.0.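 Note: antibodies captured on a Protein L sensor chip with human FcRn injected as analyte, KD calculated from fitted association and dissociation rate constants.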
B1: the dissociation constant (Kd) turned out to be 75 nM.

Turning to B2, the Kd turned out to be 200 nM.

B3 had a Kd of 770 nM.

As to B4, binding was put at a Kd of 150 nM. This Kd is about 5.1-fold lower than that of the molecule before.

B5 came in with a Kd of 63 nM.

The molecule B6 showed a Kd of 380 nM.

Take B7: the affinity, expressed as Kd, was 290 nM.

For B8, the Kd was 37 nM.

B9 had a Kd of 290 nM.

Take B10: the Kd is 24 nM.

Molecule B11 displayed a Kd of 170 nM.

As for B12, the Kd is 35 nM. Compared with the last molecule, the Kd is about 4.9-fold lower.

Turning to B13, the Kd was determined as 59 nM.

Regarding B14, binding was put at a Kd of 120 nM.

In turn, B15 yielded a Kd of 190 nM.

B16 came in with a Kd of 340 nM.

With B17, the Kd was 460 nM.

With B18, the Kd turned out to be 32 nM.

Take B19: binding was characterised by a dissociation constant (Kd) of 64 nM.

B20: the Kd was determined as 53 nM. This Kd and that of the molecule before are within 1.5-fold of each other.

In turn, B21 had a dissociation constant (Kd) of 34 nM.

Molecule B22 yielded a Kd of 290 nM.

Molecule B23 returned a Kd of 15 nM.

B24 gave an equilibrium dissociation constant (Kd) of 37 nM.

B25 displayed a Kd of 420 nM.

Take B26: binding was characterised by a dissociation constant (Kd) of 15 nM. Compared with the last molecule, the Kd is about 28-fold lower.

Consider B27, for which the Kd amounted to 190 nM.

Turning to B28, the Kd stood at 38 nM.

In turn, B29 showed a Kd of 270 nM.

Molecule B30 came in with a Kd of 160 nM.

For B31, the dissociation constant (Kd) came out at 3000 nM.

B32: binding was put at a Kd of 36 nM.

The molecule B33 gave a Kd of 210 nM.

B34 returned a Kd of 32 nM.

With B35, the Kd amounted to 270 nM.

B36 registered an equilibrium dissociation constant (Kd) of 150 nM.

B37 registered a Kd of 370 nM.

B38 had a Kd of 32 nM.

B39 gave a dissociation constant (Kd) of 200 nM.

B40 came in with a Kd of 44 nM.

Consider B41, for which the Kd stood at 30 nM.

As to B42, binding was put at a Kd of 240 nM.

B43 displayed a Kd of 180 nM.

The molecule B44 returned a Kd of 320 nM. This Kd is about 1.8-fold higher than that of the molecule before.

In the case of B45, binding was put at a Kd of 290 nM.

On to B46, for which binding was characterised by a dissociation constant (Kd) of 750 nM.

The molecule B47 displayed a dissociation constant (Kd) of 410 nM. Against the preceding molecule, the Kd is about 1.8-fold lower.

Take B48: the affinity, expressed as Kd, was 850 nM.

For B49, the Kd worked out at 220 nM.

Molecule B50 displayed a Kd of 170 nM.

In the case of B51, the affinity, expressed as Kd, was 220 nM.

As to B52, the affinity, expressed as Kd, was 270 nM. This Kd and that of the molecule before are within 1.5-fold of each other.

With B53, binding was put at a Kd of 41 nM.

Molecule B54 returned a dissociation constant Kd of 280 nM.

Molecule B55 displayed a Kd of 290 nM.
